Test results as given in PMC11134608, “UBR5 forms ligand-dependent complexes on chromatin to regulate nuclear hormone receptor stability” (Molecular cell, 2023).

Biological target: Full-length human FLAG-UBR5 (human) (UniProt O95071)
Assay: SEC-MALS; purified UBR5 full length and Δtandem variant
Conditions: remark: other sources report otherwise

stoichiometry N: 4
Substance: Full-length human FLAG-UBR5, O95071 1-2799
